# Assay results from patent publication US20260055184A1 (Hoffmann-La Roche, published 2026).
# B1: anti-idiotypic CH2527 binder 4.32.63 (scFv)
# scFv: QVQLKESGPGLVAPSQSLSITCTVSGFSLTSYGVSWVRQPPGKCLEWLGIIWGDGSTNYHSALISRLSISKDNSKSQVFLKLNSLQTDDTATYYCAKGITTVVDDYYAMDYWGQGTSVTVSSGGGGSGGGGSGGGGSGGGGSDIQMTQSPASLSASVGETVTITCRASENIDSYLAWYQQKQGKSPQLLVYAATFLADDVPSRFSGSGSGTQYSLKINSLQSEDVARYYCQHYYSTPYTFGCGTKLEIK
# notes: From mouse hybridomas (immunisation with CH2527 Fab)
# B2: 4.24.72 (antibody, V domains shown)
# VH: QIQLVQSGPELKKPGETVKISCKASGYTVTDYSMNWVKQAPGKCLKWMGWINTETGEPRYTDDFKGRFAFSLETSASTAYLQINNLKNEDSATYFCAREGDYDVFDYWGHGTTLKVSS
# VL: DIVLTQSPASLAVSLGQRATISCRASKSVSTSSYSYMHWYQQKPGQPPKLLIKYVSYLESGVPARFSGSGSGTDFTLNIHPVEEEDAATYYCQHSREFPYTFGCGTKLEIK
# B3: anti-idiotypic CH2527 binder 4.15.64 (scFv)
# scFv: QIQLVQSGPELKKPGETVRISCKASGYTFTDYSIHWVKQAPGKCLKWMGWINTETGEPAYADDFKGRFAFSLETSASTAYLQINNLKNEDTATFFCAHPYDYDVLDYWGQGTSVTVSSGGGGSGGGGSGGGGSGGGGSDTVLTQSPASLGVSLGQRATISCRASKSVSTSNYSYIHWYQQKPGQPPKLLIKYVSYLESGVPARFSGSGSGTDFTLNIHPVEEEDAATYYCQHSREFPWTFGCGTKLEIK
# notes: as for B1
# B4: HER1-binding IgG1 antibody GA201 (antibody, V domains shown)
# VH: QVQLVQSGAEVKKPGSSVKVSCKASGFTFTDYKIHWVRQAPGQGLEWMGYFNPNSGYSTYAQKFQGRVTITADKSTSTAYMELSSLRSEDTAVYYCARLSPGGYYVMDAWGQGTTVTVSS
# VL: DIQMTQSPSSLSASVGDRVTITCRASQGINNYLNWYQQKPGKAPKRLIYNTNNLQTGVPSRFSGSGSGTEFTLTISSLQPEDFATYYCLQHNSFPTFGQGTKLEIKR
# notes: produced in 293-F cells; also called anti HER1 antibody GA201; GA201 parental unmasked antibody
# Experiments:
# [1] = target: T1, CD3 binder CH2527 (VL_7-46(13)/VH_3-23(12)), as analyte MAK<CEA/CD3>rH; assay: SPR (Biacore), 37°C, analyte MAK<CEA/CD3>rH
# T1 construct: the rest of the analyte MAK<CEA/CD3>rH (a CEA/CD3 molecule by its name) is not described
# [2] = target: T1, CD3 binder CH2527 …; assay: SPR (Biacore), 25°C, analyte MAK<CEA/CD3>rH
# [3] = target: T2, HER1 extracellular domain (human, UniProt P00533 25-645); assay: SPR Biacore T100; HER1 extracellular domain amine-coupled on CM5, antibody injected at 3.125-50 nM, 1:1 Langmuir model
# T2 construct: extracellular domain
# Experimental: (§1) HER1 was immobilized on the surface of a CM5 biosensorchip using standard amine-coupling chemistry. The HER1 extracellular domain was injected in sodium acetate, pH 5.0 at 1 μg/ml. Reference control flow cells were treated in the same way but with vehicle buffer only. […] The association phase was 3 minutes and the dissociation time was 10 minutes. […] Kinetic rate constants and equilibrium dissociation constants were calculated by using the 1:1 Langmuir binding model within the Biaevaluation software.
# [4] = target: T2, HER1 extracellular domain; assay: SPR (Biacore T100), HER1 extracellular domain amine-coupled on a CM5 chip, antibody as analyte, 37 °C, 1:1 Langmuir model
# Experimental: as §1
Binder,Kd [1],koff [1],kon [1],Kd [2],koff [2],kon [2],Kd [3],koff [4],kon [4]
B1,0.002 µM,0.000652 s⁻¹,346000 M⁻¹ s⁻¹,0.001 µM,0.000105 s⁻¹,196000 M⁻¹ s⁻¹,,,
B2,0.029 µM,0.00445 s⁻¹,155000 M⁻¹ s⁻¹,0.014 µM,0.00118 s⁻¹,87200 M⁻¹ s⁻¹,,,
B3,0.094 µM,0.0135 s⁻¹,144000 M⁻¹ s⁻¹,0.096 µM,0.0025 s⁻¹,26100 M⁻¹ s⁻¹,,,
B4,,,,,,,0.001 µM,0.00012 s⁻¹,168000 M⁻¹ s⁻¹
